Assay results: paper PMC9352680, “A comprehensive thermodynamic model for RNA binding by the Saccharomyces cerevisiae Pumilio protein PUF4”

T1: PUF4 RNA-binding domain (Saccharomyces cerevisiae, UniProt P25339 537-888)
T1 sequence: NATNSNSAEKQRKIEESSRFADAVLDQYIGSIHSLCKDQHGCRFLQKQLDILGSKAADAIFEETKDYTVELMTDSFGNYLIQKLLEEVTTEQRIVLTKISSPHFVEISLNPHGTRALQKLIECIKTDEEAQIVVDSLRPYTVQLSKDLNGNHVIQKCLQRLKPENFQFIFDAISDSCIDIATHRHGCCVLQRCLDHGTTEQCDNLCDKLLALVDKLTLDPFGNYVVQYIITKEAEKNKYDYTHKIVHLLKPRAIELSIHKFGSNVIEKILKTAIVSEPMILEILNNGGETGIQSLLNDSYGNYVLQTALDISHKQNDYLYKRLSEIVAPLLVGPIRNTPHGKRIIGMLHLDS


Molecular target: T1, PUF4 RNA-binding domain
Test: Mg; RNA-MaP; 20 mM Na-HEPES pH 7.4, 30 mM KOAc, 0.75 mM MgCl2, 0.1% Tween-20, 5% glycerol, 0.1 mg/mL BSA, 2 mM DTT; 25 C; 0.0125-409.6 nM protein
Settings: tags: N-His6-TEV cleaved; C-SNAP kept, Cy3B-labelled; label: tethered on chip by stalled RNA polymerase

Binder | Kd
ACAAACAGUAUAUAUACCACAAAC (ssRNA) [Id_ii_S3_P3E.3_K3.2_C3.2_[C-2A]_[T-1G]_H3.2_A3.1_F3.1_T3.2_[T9C]_[A10C]] | 1920 nM
ACAAACGUUAUAUAUAUUACAAAC (ssRNA) [Id_ii_S3_P3E.3_K3.2_C3.2_[C-2G]_H3.2_A3.1_F3.1_T3.2_[A10T]] | 154 nM
ACAAACGAUAUAUAUAGGACAAAC (ssRNA) [Id_ii_S3_P3E.3_K3.2_C3.2_[C-2G]_[T-1A]_H3.2_A3.1_F3.1_T3.2_[T9G]_[A10G]] | 535 nM
ACAAACAUUAUAUAUAAUACAAAC (ssRNA) [Id_ii_S3_P3E.3_K3.2_C3.2_[C-2A]_H3.2_A3.1_F3.1_T3.2_[T9A]_[A10T]] | 381 nM
ACAAACUAUAUAUAUACAACAAAC (ssRNA) [Id_ii_S3_P3E.3_K3.2_C3.2_[C-2T]_[T-1A]_H3.2_A3.1_F3.1_T3.2_[T9C]] | 205 nM
ACAAACGAUAUAUAUAAUACAAAC (ssRNA) [Id_ii_S3_P3E.3_K3.2_C3.2_[C-2G]_[T-1A]_H3.2_A3.1_F3.1_T3.2_[T9A]_[A10T]] | 115 nM
ACAAACUUUAUAUAUAAUACAAAC (ssRNA) [Id_ii_S3_P3E.3_K3.2_C3.2_[C-2T]_H3.2_A3.1_F3.1_T3.2_[T9A]_[A10T]] | 149 nM
ACAAACUUUAUAUAUAUUACAAAC (ssRNA) [Id_ii_S3_P3E.3_K3.2_C3.2_[C-2T]_H3.2_A3.1_F3.1_T3.2_[A10T]] | 34.5 nM
ACAAACGCUAUAUAUAACACAAAC (ssRNA) [Id_ii_S3_P3E.3_K3.2_C3.2_[C-2G]_[T-1C]_H3.2_A3.1_F3.1_T3.2_[T9A]_[A10C]] | 1130 nM
ACAAACUCUAUAUAUAGCACAAAC (ssRNA) [Id_ii_S3_P3E.3_K3.2_C3.2_[C-2T]_[T-1C]_H3.2_A3.1_F3.1_T3.2_[T9G]_[A10C]] | 767 nM
ACAAACACUAUAUAUACUACAAAC (ssRNA) [Id_ii_S3_P3E.3_K3.2_C3.2_[C-2A]_[T-1C]_H3.2_A3.1_F3.1_T3.2_[T9C]_[A10T]] | 43.8 nM
ACAAACACUAUAUAUAUGACAAAC (ssRNA) [Id_ii_S3_P3E.3_K3.2_C3.2_[C-2A]_[T-1C]_H3.2_A3.1_F3.1_T3.2_[A10G]] | 572 nM
ACAAACGGUAUAUAUAACACAAAC (ssRNA) [Id_ii_S3_P3E.3_K3.2_C3.2_[C-2G]_[T-1G]_H3.2_A3.1_F3.1_T3.2_[T9A]_[A10C]] | 509 nM
ACAAACGUUAUAUAUAGUACAAAC (ssRNA) [Id_ii_S3_P3E.3_K3.2_C3.2_[C-2G]_H3.2_A3.1_F3.1_T3.2_[T9G]_[A10T]] | 292 nM
ACAAACGAUAUAUAUAACACAAAC (ssRNA) [Id_ii_S3_P3E.3_K3.2_C3.2_[C-2G]_[T-1A]_H3.2_A3.1_F3.1_T3.2_[T9A]_[A10C]] | 969 nM
ACAAACUCUAUAUAUAUCACAAAC (ssRNA) [Id_ii_S3_P3E.3_K3.2_C3.2_[C-2T]_[T-1C]_H3.2_A3.1_F3.1_T3.2_[A10C]] | 493 nM

Binder | Kd
ACAAACACUAUAUAUAUCACAAAC (ssRNA) [Id_ii_S3_P3E.3_K3.2_C3.2_[C-2A]_[T-1C]_H3.2_A3.1_F3.1_T3.2_[A10C]] | 541 nM
ACAAACUCUAUAUAUAAUACAAAC (ssRNA) [Id_ii_S3_P3E.3_K3.2_C3.2_[C-2T]_[T-1C]_H3.2_A3.1_F3.1_T3.2_[T9A]_[A10T]] | 72 nM
ACAAACGAUAUAUAUAAAACAAAC (ssRNA) [Id_ii_S3_P3E.3_K3.2_C3.2_[C-2G]_[T-1A]_H3.2_A3.1_F3.1_T3.2_[T9A]] | 1080 nM
ACAAACGGUAUAUAUAUGACAAAC (ssRNA) [Id_ii_S3_P3E.3_K3.2_C3.2_[C-2G]_[T-1G]_H3.2_A3.1_F3.1_T3.2_[A10G]] | 552 nM
ACAAACGAUAUAUAUACAACAAAC (ssRNA) [Id_ii_S3_P3E.3_K3.2_C3.2_[C-2G]_[T-1A]_H3.2_A3.1_F3.1_T3.2_[T9C]] | 839 nM
UCUCUUUGUAUUUUCAUCUCUU (ssRNA) [Ic_S1_P5E.1_K5.1_C5.1_H5.1_A5.1_[A7T]_F5.1_[T9C]_T5.1] | 32.5 nM
UCUCUUUGUAUUGUAAUCUCUU (ssRNA) [Ib_S1_P5E.1_K5.1_C5.1_H5.1_A5.1_[A7G]_F5.1_[T9A]_T5.1] | 10.6 nM
ACAAACUAUAUAUAUAACACAAAC (ssRNA) [Id_ii_S3_P3E.3_K3.2_C3.2_[C-2T]_[T-1A]_H3.2_A3.1_F3.1_T3.2_[T9A]_[A10C]] | 376 nM
ACAAACGAUAUAUAUAGUACAAAC (ssRNA) [Id_ii_S3_P3E.3_K3.2_C3.2_[C-2G]_[T-1A]_H3.2_A3.1_F3.1_T3.2_[T9G]_[A10T]] | 62.3 nM
ACAAACUCUAUAUAUAUUACAAAC (ssRNA) [Id_ii_S3_P3E.3_K3.2_C3.2_[C-2T]_[T-1C]_H3.2_A3.1_F3.1_T3.2_[A10T]] | 39 nM
ACAAACGCUAUAUAUAUUACAAAC (ssRNA) [Id_ii_S3_P3E.3_K3.2_C3.2_[C-2G]_[T-1C]_H3.2_A3.1_F3.1_T3.2_[A10T]] | 45.1 nM
ACAAACUCUAUAUAUACCACAAAC (ssRNA) [Id_ii_S3_P3E.3_K3.2_C3.2_[C-2T]_[T-1C]_H3.2_A3.1_F3.1_T3.2_[T9C]_[A10C]] | 771 nM
ACAAACACUAUAUAUAAAACAAAC (ssRNA) [Id_ii_S3_P3E.3_K3.2_C3.2_[C-2A]_[T-1C]_H3.2_A3.1_F3.1_T3.2_[T9A]] | 1080 nM
ACAAACGUUAUAUAUACCACAAAC (ssRNA) [Id_ii_S3_P3E.3_K3.2_C3.2_[C-2G]_H3.2_A3.1_F3.1_T3.2_[T9C]_[A10C]] | 1700 nM
ACAAACUUUAUAUAUAACACAAAC (ssRNA) [Id_ii_S3_P3E.3_K3.2_C3.2_[C-2T]_H3.2_A3.1_F3.1_T3.2_[T9A]_[A10C]] | 522 nM
